Measured values: PMC11325815 (Journal of Hematology & Oncology, 2024)

Biological target: recombinant extracellular domain (ECD) of human IL1RAP (S21-E359) (Homo sapiens, UniProt Q9NPH3)
Assay: SPR

recombinant extracellular domain (ECD) of human IL1RAP (S21-E359), sequence (Q9NPH3 21-359): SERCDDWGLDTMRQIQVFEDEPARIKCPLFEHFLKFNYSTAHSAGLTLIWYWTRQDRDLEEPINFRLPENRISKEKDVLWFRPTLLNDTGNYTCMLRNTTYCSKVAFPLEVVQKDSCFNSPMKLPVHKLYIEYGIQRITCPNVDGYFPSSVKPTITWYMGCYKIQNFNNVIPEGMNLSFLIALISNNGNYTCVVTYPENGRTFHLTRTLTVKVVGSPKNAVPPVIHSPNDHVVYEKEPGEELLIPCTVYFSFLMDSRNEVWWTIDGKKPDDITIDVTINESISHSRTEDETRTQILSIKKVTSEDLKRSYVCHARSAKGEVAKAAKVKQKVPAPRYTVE

Kd: 2.2 nM
B1: anti-IL1RAP-24 Fab (Fab, V domains shown)
VH: QVQLQQSGPELVRPGVSVKISCKGSGYTFTDYAMHWVKQSHGKGLEWIGIISTYSGNTKFHQKFKGKATMTVDKSSSTAYMELARLTSEDSAIYYCARQGTWYFDVWGAGTTVTVSS
VL: QIVLTQSPAIMSASPGEKVTMTCSASSTIIYIHWYQQKPGTSPKGWIYDTSKLASGVPARFSGSGSGTSYSLTISSMEAEDAATYYCHQRTSYPWTFGGGTKLEIK
